Laboratory results from US20230133118A1, “COMPOSITIONS AND METHODS FOR TREATING CANCER” (Adagene AG, priority 2020, published 2023).

Key:
[1] = GLP repeat-dose toxicity and safety pharmacology in cynomolgus monkeys; format: in vivo, cynomolgus monkey
Lewis lung cancer cells = assay: Lewis lung cancer model, ADG106 with cisplatin; format: in vivo, C57BL/6 mice; conditions: 5 mg/kg i.p.
Text: C57BL/6 mice (n=8 per group, female, 6-8 weeks old) were transplanted subcutaneously with 5×10^5 Lewis lung cancer cells. […] Tumor growth was monitored twice weekly and reported as mean tumor volume ±SEM over time.

[2] = test system: CT-26 (colon carcinoma), H22 (liver cancer), EMT6 (breast cancer); assay: Single agent efficacy in syngeneic mouse tumor models (CT-26, H22, EMT6); format: in vivo
NK (CD16+/CD56+) cells = assay: TBNK flow cytometry of patient peripheral blood, NK cell percentage; format: in vivo, human; conditions: 32 patients analyzed
CD137 = CD137 (Homo sapiens, UniProt Q07011); assay: Receptor occupancy calculated from drug plasma concentration and KD
Chain of CD137 (Q07011 24-255): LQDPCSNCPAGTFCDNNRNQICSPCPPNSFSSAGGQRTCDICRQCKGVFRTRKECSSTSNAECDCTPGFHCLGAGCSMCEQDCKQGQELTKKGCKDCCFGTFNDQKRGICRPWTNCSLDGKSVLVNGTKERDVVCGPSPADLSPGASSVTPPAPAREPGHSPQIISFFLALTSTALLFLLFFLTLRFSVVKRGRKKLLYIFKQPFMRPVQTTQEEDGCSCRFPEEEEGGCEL

ADG106: fully human agonistic anti-CD137 monoclonal IgG4 antibody; heavy chain SEQ ID NO: 10, light chain SEQ ID NO: 11
NOAEL and HNSTD ([1]; cynomolgus monkey, in vivo): > 200 mg/kg
NOEL and NOAEL ([1]; once weekly IV infusion up to 29 days): 200 mg/kg
anti-tumor activity, monotherapy (Lewis lung cancer cells): showed anti-tumor activity
single agent efficacy in CT-26, H22 and EMT6 syngeneic models ([2]; mouse, in vivo): single agent anti-tumor efficacy
median effective dose (ED50) ([2]; syngeneic mouse liver and breast cancer models): approximately 1 mg/kg
patients with a decrease of the NK cell level (NK (CD16+/CD56+) cells): 6%
patients with no change of the NK cell level (NK (CD16+/CD56+) cells): 6%
patients with an increase of the NK cell level in peripheral blood (NK (CD16+/CD56+) cells; after first cycle): 88%
Receptor occupancy (CD137; 0.03 mg/kg): 58%
Receptor occupancy (CD137; 0.1 mg/kg): 82%
Receptor occupancy (CD137; 0.3 mg/kg): 93%
Calculated Receptor Occupancy (CD137; 1 mg/kg): 98%
